The target of the experiment is T1, hemagglutinin H3 (A/Victoria/361/2011), trypsin-cleaved HA1/HA2 trimer for crystallization (Influenza A virus A/Victoria/361/2011 …, UniProt A0A097PF39, strain, N-linked glycans (a group 2-specific sugar at position 38 of HA1)).
T1 construct: copies: 3 + 3
Put plainly: crystal structure. The conditions noted are these: both partners purified.

B1: 3I14 fragment antigen-binding region (Fab) (Fab, V domains shown)
VH: QVQLLESGGGVVQPGRSLRLSCAASGFTFSNYGMHWVRQAPGKGLEWVAIISFDGSKKYYANSVKGRSTISRDNSKNTLSLQMNSLGPEDTALYYCAKLPSPYYFDSRFVWVAASAFHFWGQGILVTVSS
VL: NFMLTQPPSASGTPGQRVTISCSGSSSNIGGNTVHWFQQLPGTAPKLLIYTNSLRPSGVPDRFSGSKSGTSASLAISGLQSEDEADYYCAAWDDSLNGQVFGGGTKLTVL
Turning to B1, the binding result is on record as “binds”.

B2: 3I14^D93N Fab (Fab, V domains shown)
VH: B1 VH
VL: LTQPPSASGTPGQRVTISCSGSSSNIGGNTVHWFQQLPGTAPKLLIYTNSLRPSGVPDRFSGSKSGTSASLAISGLQSEDEADYYCAAWDNSLNGQVFGGGTKLTVL
Turning to B2, the binding result is given as “binds”.

These data come from PMC7835374 (Nature Communications, 2021).
